The target in the test is Insulin. Briefly: polyreactivity ELISA on insulin (and dsDNA).
Chain of Insulin (P01308 25-54, chain 1 of 2): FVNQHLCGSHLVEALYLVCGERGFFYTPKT
Chain of Insulin (P01308 90-110, chain 2 of 2): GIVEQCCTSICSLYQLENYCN

As for Bococizumab analogue (antibody), the reactivity score was over 15.

Substance Briakinumab analogue (antibody) registered a reactivity score of over 15.

For the origin of these results see US20260042850A1.
